In patent US12723078 (University of Texas, dated 2026):

Tests used:
LILRA1 = target: T1, LILRA1 (human, UniProt O75019); experiment: Octet RED96, cross-reactivity table
T1 construct: not the cell-surface form of MOLECULES; also called LILRA1 protein of the ELISA and Octet specificity tests

recombinant LILRB1 [1] = target: T2, recombinant LILRB1 (human, UniProt Q8NHL6 24-461); experiment: ELISA, coated recombinant LILRB1, antibody titration;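 note: serially diluted anti-LILRB1 antibodies incubated 60 min at 37 °C on plates coated with 50 ng/well recombinant protein, TMB colorimetric development read as absorbance at 450 nm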
T2 construct: LILRB1-Fc proteins were also made; also called LILRB1 recombinant proteins
Protocol: (§1) ELISA. LILRB1 recombinant proteins (50 ng/well, 100 μL per well) were coated on Corning 96-well ELISA plates at 37° C. for 4 hrs. Plates were blocked for 2 hrs at 37° C. with 5% non-fat milk. After washing with PBST, 100 μL of serial diluted anti-LILRB1 antibodies were added and incubated for 60 min at 37° C. […] Plates were washed again with PBST for another 5 times, then the immunoreactions were developed with TMB substrates (Sigma, Cat #T0440) and stopped by the addition of 2 M H_2SO_4 before the plate was read at 450 nm.

recombinant LILRB1 [2] = target: T2, recombinant LILRB1; experiment: BLI (Octet RED96), antibody on biosensor, recombinant LILRB1 in solution;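 note: Background-subtracted sensorgrams fitted with a one-to-one binding model, KD taken as koff over kon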
Protocol: (§2) Following a short baseline in kinetics buffer for 20 s, the loaded biosensors were exposed to solutions of recombinant LILRB1 in a range of concentrations (0-500 nM). After background was subtracted, data was fit to a 1:1 binding model to extract an association rate ($kon$) and dissociation rate ($koff$). The KD was calculated using the ratio $koff/kon$. […] All experiments were performed with shaking at 1,000 rpm. All raw data was processed using ForteBio Octet Data Analysis Software 9.0.

[3] = target: T3, recombinant human LILRB1 protein (human, UniProt Q8NHL6 24-461); experiment: ELISA
T3 construct: ELISA and Octet methods say only 'recombinant LILRB1'; also called recombinant LILRB1; LILRB1 recombinant proteins
Protocol: as §1

[4] = target: T3, recombinant human LILRB1 protein; experiment: Octet RED96, LILRB1 at 100, 33.3, 11.1 and 3.7 nM
Protocol: as §2

T1 sequence (O75019 17-461 limits assumed): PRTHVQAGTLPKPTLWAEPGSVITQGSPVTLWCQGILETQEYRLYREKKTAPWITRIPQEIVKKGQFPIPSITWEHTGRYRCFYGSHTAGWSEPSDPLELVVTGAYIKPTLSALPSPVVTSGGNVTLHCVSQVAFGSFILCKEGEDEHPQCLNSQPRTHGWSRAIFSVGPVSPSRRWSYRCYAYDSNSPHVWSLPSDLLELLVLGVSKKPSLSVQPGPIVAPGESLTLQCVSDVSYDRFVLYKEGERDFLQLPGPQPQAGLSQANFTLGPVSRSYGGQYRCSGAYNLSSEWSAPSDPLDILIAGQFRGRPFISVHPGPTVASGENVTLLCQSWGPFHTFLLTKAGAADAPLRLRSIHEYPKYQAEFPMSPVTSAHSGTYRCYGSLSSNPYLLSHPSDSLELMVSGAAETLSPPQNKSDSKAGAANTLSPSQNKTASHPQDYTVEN
T3 sequence (Q8NHL6 24-461 limits assumed): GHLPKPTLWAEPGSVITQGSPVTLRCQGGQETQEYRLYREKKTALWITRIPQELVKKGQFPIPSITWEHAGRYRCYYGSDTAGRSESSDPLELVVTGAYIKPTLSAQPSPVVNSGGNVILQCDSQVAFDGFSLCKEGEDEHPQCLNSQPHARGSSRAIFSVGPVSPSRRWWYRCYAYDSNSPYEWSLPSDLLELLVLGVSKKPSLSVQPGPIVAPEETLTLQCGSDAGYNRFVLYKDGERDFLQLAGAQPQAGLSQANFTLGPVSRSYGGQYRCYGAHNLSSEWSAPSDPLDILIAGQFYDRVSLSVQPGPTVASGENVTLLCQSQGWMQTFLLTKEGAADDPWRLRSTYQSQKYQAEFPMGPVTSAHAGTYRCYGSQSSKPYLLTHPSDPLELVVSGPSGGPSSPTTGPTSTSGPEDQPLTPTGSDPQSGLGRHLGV
T2 sequence (Q8NHL6 24-461 limits assumed): as above

| Binder | binding result (LILRA1) | EC50 (recombinant LILRB1 [1]) [µg/mL] | Kd (recombinant LILRB1 [2]) [nM] | koff (recombinant LILRB1 [2]) [s⁻¹] | kon (recombinant LILRB1 [2]) [M⁻¹ s⁻¹] | binding result [3] | Kd [4] [nM] |
| --- | --- | --- | --- | --- | --- | --- | --- |
| B1-#190 (antibody, V domains shown, recombinant rabbit IgG) VH: QEQLKESGGDLVKPEGSLTLTCTASGFSFSSDYWVCWVRQAPGKGPEWIGCIYTGDDDTYYASWAKGRFTISKTSSTTVTLEVTSLTAADTATYFCARGLTIGTAELYFWGPGTVVTVSS VL: ELVLTQTPSPVSAAVGGTVTINCQASQSISNELSWYQQKPGQPPKLLIYLASTLDSGVPSRFKGSGSGTQFTLTISDLECADAATYYCQSHYYGGSSDYGWAFGGGTEVVVK | binds | 0.00678 |  |  |  |  |  |
| B1-#198 (antibody, V domains shown, recombinant rabbit IgG) VH: QSLEESGGGLVKPEGSLTLTCTASGFDLSNNYYICWVRQAPGKGLELIACVDSDLTDSADYASWAKGRFTISKTSSTTVTLQMTSLTAADTATYFCAGSGSGYYYYYGMDLWGPGTLVTISS VL: ELDMTQTPASVSEPVGGTVTIKCQASQSIGSYLAWYQQKPGQPPKLLAFYASTLKSGVPPRFKGSGSGTEFTLTISDLECADAATYYCQSNRLSSSDVNAFGGGTEVEIK |  | 0.00942 | 0.0272 | 5.92e-06 | 218000 |  |  |
| B1-#178-2 (antibody, V domains shown, recombinant rabbit IgG) VH: QKQLVESGGGLVQPEGSLALTCTASGFSFSSSYWICWVRQAPGKGLEWIACIYAGSSGSTYYASWVNGRFTVFKTSSTTVTLQMTSLTAADTATYFCARGGTSYRLDLWGPGTLVTVSS VL: ELVLTQTPSSKSVAVGDTVTINCQASDNVYSNNYTSWFQQKPGQPPKQLLYYAAYRASGVPSRFKGSGSGTEFTLSISDVVCDDAATYYCSGHKDYSDDGSTFGGGTEVEIK |  | 0.0143 | 1.59 | 0.000273 | 172000 |  |  |
| B1-#209 (antibody, V domains shown, recombinant rabbit IgG) VH: SQSVEESGGDLVKPGGTLTLTCTASRIDLNNYYYISWVRQAPGKGLEWIGVVATDSSVTWYASWAKGQFTISKTSSTTVTLQMTSLTAADTATYFCARGSGAATNGVWWVMGDGMDLWGPGTLVTVSS VL: ELVMTQTPASVSEPVGGTVTIKCQASQSISSYLSWYQQKPGQPPKRLIYKASTLASGVPSRFKGSGSGTEFTLTISGVQCADAATYYCQNNYHSGSSNGGGFAFGGGTEVEIK |  | 0.011 | 3.03 | 0.000209 | 68900 |  |  |
| B1-#74 (antibody, V domains shown, recombinant rabbit IgG) VH: QSLEESGGGLVKPGASLTLTCTASGFSLNRYYMCWVRQAPGKGLEWIGCIYSGSGSTYYASWAKGRFTISKTSSTTVTLQMTSLPAADTATYFCGRLDYRVIYAFNLWGPGTLVTISS VL: ELVLTQTPASVSAAVGGTVTINCQASQSIGSGNLAWYQQKPGQPPKLLIYLASTLASGVPPRFKGSGSGTEFTLTISDLECDDAATYYCQYTYYGTTYDNAFGGGTELEIK |  | 0.13 | 16.1 | 0.00145 | 89900 |  |  |
| Hu B1-176-N297A (antibody, V domains shown, Human IgG1 with N297A) VH: EVQLVESGGGLVQPGGSLRLSCAASGFSFSSSYCMCWVRQAPGKGLELVSCIYTDSSGATYYASWAKGRFTISRHNSKNTLYLQMNSLRAEDTAVYYCARGWDYEDPGYTDTTYFSLWGRGTLVTVSS VL: DIQLTQSPSFLSASVGDRVTITCQASQTIYTNLAWYQQKPGKAPKLLIYAASTLASGVPSRFSGSGSGTEFTLTISSLQPEDFATYYCQSYYGSSTTGNGFGGGTKVEIK |  |  |  |  |  |  | 0.351 |
| B1-176-N297A (antibody, V domains shown) VH: QSLEESEGGLVKPGGTLTLTCTASGFSFSSSYCMCWVRQAPGKGLELIACIYTDSSGATYYASWAKGRFTISKSSSTTITLQMTSLTAADTATYFCARGWDYEDPGYTDTTYFSLWGPGTLVTVSS VL: ELDLTQTPSSVEAAVGGTVTIKCQASQTIYTNLAWYQQKPGQPPNLLIYAASTLASGVSSRFKGSGSGTEFTLTISDLECADAATYYCQSYYGSSTTGNGFGGGTEVEIK |  |  |  |  |  |  | 0.17 |
| B1-#22 (antibody, V domains shown, recombinant rabbit IgG) VH: EQSLEESGGGLVKPGASLTLTCKASGFDFSSNDYMCWVRQAPGKGLEWIGCIYGGDGHTYYATWAKGRFTISKASSTTVTLQMTSLTAADTASYFCARGYSYGDTGYADAILTLDLWGPGTLVTVSS VL: ELDLTQTPASVEAAVGGTVTIKCQASQTIGSYLSWYQQKPGQRPKLLIYEASKLASGVPSWFKGSGSGTEFTLTISDLECADAATYYCQSNYYRAGGNYGGAFGGGTEVEIK |  | 0.0292 | 0.611 | 8.62e-05 | 141000 |  |  |

Further lines, results first:

| binding result (LILRA1) | EC50 (recombinant LILRB1 [1]) [µg/mL] | Kd (recombinant LILRB1 [2]) [nM] | koff (recombinant LILRB1 [2]) [s⁻¹] | kon (recombinant LILRB1 [2]) [M⁻¹ s⁻¹] | binding result [3] | Kd [4] [nM] | Binder |
| --- | --- | --- | --- | --- | --- | --- | --- |
| binds |  |  |  |  |  |  | B1-#3 (antibody, V domains shown, IgG; also called antagonistic B1-3) VH: QSLEESEGDLVKPEGSLTLTCKASGFDFSSDAMCWVRQAPGKGLEWIGCIYNGDEITDHASWAKGRFTISKTSPTTVTLQMTSLTVADTATYFCARAVYSDGGAGYPYMYGMDLWGPGTLVTVSS VL: ELDMTQTPASVEAAVGGTVTIKCQASQNIYSYLVWYQQKPGQPPKLLISKASTLASGVSSRFKGSGSGTEFTLTINDLECADAATYYCQTNYFSSTSHFGVFTFGGGTELEIK |
|  | 0.482 | 8.54 | 0.000338 | 39600 |  |  | B1-#93 (antibody, V domains shown, recombinant rabbit IgG) VH: EQSVEESGGDLVKPGTSLTLTCTASGFSFSGNTICWVRQAPGKRPEWIACIYPSSTSITTYATWAKGRFTVSKTSSTTVTLQMTSLTAADTATYFCARRYAAFLTYGSGAFDPWGPGTLVTISS VL: ELDLTQTPASVSAAVGGTVTINCQASESIGSALAWYQQKPGQPPKLLIYSASALASGVPSRFKGSGSGTEYTLTISDLECADAATYYCQSYYGSGTTALDTFGGGTEVEIK |
|  | 0.00794 | 1.27 | 0.000161 | 127000 |  |  | B1-#27 (antibody, V domains shown, recombinant rabbit IgG) VH: EQSVKESGGGLVQPEGSLTLTCTVSGFSFSGSYWICWVRQAPGKGLEWIACIYGDSIATYYPNWAKGRFTISKTSSTTVTLQMASLTGADTATYFCARDRNGGSGAYGWDLWGPGTLVTISS VL: ELDLTQTPASVSEPVGGTVTITCQASQSISSYLSWYQQTPGQPPKLLIYKASTLASGVPSRFKGSGSGTEFTLTISDLECADAATYYCQSYYYISATVDNTFGGGTEVEIK |
|  |  |  |  |  | binds |  | humanized B1-176 with heavy chain Hu-176 VH-1 and light chain Hu-176 VL (antibody, V domains shown) VH: EVQLVESGGGLVQPGGSLRLSCAASGFSFSSSYCMCWVRQAPGKGLEWVSCIYTDSSGATYYASWAKGRFTISRHNSKNTLYLQMNSLRAEDTAVYYCARGWDYEDPGYTDTTYFSLWGRGTLVTVSS VL: DIQLTQSPSFLSASVGDRVTITCQASQTIYTNLAWYQQKPGKAPKLLIYAASTLASGVPSRFSGSGSGTEFTLTISSLQPEDFATYYCQSYYGSSTTGNGFGGGTKVEIK |
| no binding (tested: not given) | 0.00737 |  |  |  |  |  | B1-#204 (antibody, V domains shown, recombinant rabbit IgG) VH: QSVKESGGGLVKPGGTLTLTCTASGFSFSSSYCMCWVRQAPGKGLELIACIYTDSSGATYYASWAKGRFTISKSSSTTITLQMTSLTAADTATYFCARGWDYEDPGYTDTTYFSLWGPGTLVTVSS VL: ELDMTQTPSSVEAAVGGTVTIKCQASQTIYTNLAWYQQKPGQPPNLLIYAASTLASGVSSRFKGSGSGTEFTLTISDLECADAATYYCQSYYGSSTTGNGFGGGTEVEIN |
| binds | 0.00602 |  |  |  |  |  | B1-#5 (antibody, V domains shown, recombinant rabbit IgG) VH: EQSLEESGGDLVKPEGSLTLTCTASELSFSSAYYMCWVRQAPGKGLEWIGCIYSGDGDTYYANWAKGRFTISKTSSTTVTLQMTSLTDADTATYFCARALDSHYSSFDLWGPGTLVTISS VL: ELDMTQTPSSVSAAVGDTVTIKCQASQSIYRYLAWYQQKPGQRPSLLIYYGSDLASGVPSRFSGSGSGTEFTLTISDLECADAASYYCQTTYDDYHNGWAFGGGTNVEIN |
